# Patent US7265263B1, “Potato transcription factors, methods of use thereof, and a method for enhancing tuber development” (Iowa State University Research Foundation, Inc., priority 2002, dated 2007)
# T1: GAD protein alone (UniProt P04386 768-881, limits assumed)
# T1 construct: Control of the immunoprecipitation
# T1 sequence (looked up): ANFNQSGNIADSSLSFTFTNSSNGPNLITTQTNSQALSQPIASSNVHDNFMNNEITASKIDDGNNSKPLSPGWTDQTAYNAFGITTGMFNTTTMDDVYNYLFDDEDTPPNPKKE
# B1: StBEL-05 protein from pGEM11Z (in vitro transcription/translation) (other)
# chain: MYYQGTSDNTNIQADHQQRHNHGNSNNNNIQTLYLMNPNNYMQGYTTSDTQQQQQLLFLNSSPAASNALCHANIQHAPLQQQHFVGVPLPAVSLHDQINHHGLLQRMWNNQDQSQQVIVPSSTGVSATSCGGITTDLASQLAFQRPIPTPQHRQQQQQQGGLSLSLSPQLQQQISFNNNISSSSPRTNNVTIRGTLDGSSSNMVLGSKYLKAAQELLDEVVNIVGKSIKGDDQKKDNSMNKESMPLASDVNTNSSGGGESSSRQKNEVAVELTTAQRQELQMKKAKLLAMLEEVEQRYRQYHHQMQIIVLSFEQVAGIGSAKSYTQLALHAISKQFRCLKDAIAEQVKATSKSLGEEEGLGGKIEGSRLKFVDHHLRQQRALQQIGMMQPNAWRPQRGLPERAVSVLRAWLFEHFLHPYPKDSDKIMLAKQTGLTRSQVSNWFINARVRLWKPMVEEMYLEEVKNQEQNSTNTSGDNKNKETNISAPNEEKHPIITSSLLQDGITTTQAEISTSTISTSPTAGASLHHAHNFSFLGSFNMDNTTTTVDHIENNAKKQRNDMHKFSPSSILSSVDMEAKARESSNKGFTNPLMAAYAMGDFGRFDPHDQQMTANFHGNNGVSLTLGLPPSENLAMPVSQQNYLSNDLGSRSEMGSHYNRMGYENIDFQSGNKRFPTQLLPDFVTGNLGT
# notes: 35S-methionine labelled prey; also called p11Z-5
# Assays:
# [1] = tested on: CaMV 35S promoter; test: Transcription assay, GUS reporter driven by CaMV 35S promoter in tobacco protoplasts; assay type: cell-based, cauliflower mosaic virus
# Method: FIGS. 24A-C show schematics of constructs (FIG. 24A) and the repression effect of StBEL-05 and POTH1 on the ga20ox1 promoter (FIG. 24B) and on the 35S CaMV promoter (FIG. 24C). The construct with the LUC gene under the control of the cauliflower mosaic virus (CaMV) 35S promoter was used as an internal control. Each transfection was performed three times. Relative GUS-LUC activity was calculated with reporter alone set as 100%. Data are means±SE.
# For each transfection analysis, 700 μL of tobacco protoplasts (prepared as described above) were mixed with 30 μL 2 M KCl and plasmid DNA in an electroporation cuvette with 0.4-cm electrode gap. […]
# Luciferase assays were performed by injecting 100-μL luciferase substrate (Promega, Madison, Wis.) into 20 μL of extract and measuring the emitted photons for 15 seconds in a TD-20 luminometer (Turner Designs, Sunnyvale, Calif.). […] A fluorescence multiwell plate reader, Fluoroskan II (MTX labs, Vienna, Va.), was used to measure GUS activity at 365 nm (excitation) and 455 nm (emission). Each sample was measured three times for both LUC and GUS activity. Relative GUS-LUC activity was calculated by dividing the ratio of GUS activity to LUC activity from different effectors with the ratio from reporter plasmid alone. Relative activities calculated from three transfection replications were presented as a mean±SE.
# [2] = tested on: POTH1; test: Yeast two-hybrid interaction with POTH1; assay type: binding, Solanum tuberosum; conditions: nutritional selection and lacZ activation, yeast AH109
# Excerpt: The Matchmaker two-hybrid system (Clontech, Calif.) was used for the yeast two-hybrid screen. Yeast transformation and plasmid rescue into DH5-α E. coli cells were according to the manufacturer's instructions. Full-length POTH1 was cloned into the pBridge (Clontech, Calif.) vector and used as bait to screen the potato (S. tuberosum ‘Desireé’) stolon cDNA library in pAD-GAL4-2.1 (Stratagene, Calif.). Positive interactions were confirmed by cotransforming yeast strain AH109 with each purified pAD plasmid and pBridge: POTH1 and plating on -leucine/-tryptophan (transformation control) and -leucine/-tryptophan/-histidine/-adenine (selection) nutrient medium. Induction of the AH109 reporter gene, lacZ, was measured with a yeast β-galactosidase assay kit (Pierce Chemicals). β-galactosidase activity (FIG. 9B) was determined from a known density of yeast cells and calculated as 1000×OD420/time of color reaction (minutes)×volume of yeast culture (ml)×OD600.
# The StBEL-05 deletion constructs were amplified by PCR, then cloned into the vector, pGAD, in-frame with the GAL4 activation domain. POTH1 deletion constructs were amplified by PCR, and cloned into pBridge (Clontech) in-frame with the GAL4 binding domain. Sequencing of selected cDNAs and constructs was performed at the Iowa State University DNA Facility. For deletion analysis, modified constructs of POTH1 were cloned into the pBridge vector for fusion with the DNA-binding domain of GAL4 (FIG. 10A). For StBEL-05, constructs were cloned into the pGAD vector for fusion with the activating domain of GAL4 (FIG. 10B). Deletion constructs were made from both the amino and carboxy termini. These mutants were then tested for interaction in the yeast two-hybrid system by cotransforming into yeast strain AH109 with the corresponding full-length partner (StBEL-05 in pGAL4 or POTH1 in pBridge). All constructs were sequenced to verify that they were in-frame. Positive interactions were verified for lacZ induction by using a β-galactosidase assay (Pierce Chemical Company). For POTH1, seven deletion constructs were tested (FIG. 10A). For the BEL TFs, a fusion construct of StBEL-05 (653 aa of StBEL-05 sequence) and nine deletion constructs were tested (FIG. 10B).
# [3] = biological target: T1, GAD protein alone; test: in vitro translated 35S-labelled proteins, immunoprecipitation with anti-GAD antibodies
# Method: In vitro binding experiments were performed as described by Ni et al., "PIF3, a Phytochrome-Interacting Factor Necessary for Normal Photoinduced Signal Transduction, is a Novel Basic *Helix*-Loop-Helix Protein," *Cell* 95:657-667 (1998), which is hereby incorporated by reference in its entirety. The full-length sequence for POTH1 was cloned into a pET17b/GAD fusion cassette and transcribed under the control of the T7 promoter. The BEL cDNAs were cloned into pGEM11Z vectors and were transcribed under the control of the T7 promoter. ^35S-methionine labeled bait and prey proteins were synthesized using the TnT in vitro transcription-translation kit (Promega) according to the manufacturer's protocols. Each 50 μl TnT reaction contained 2.0 μg of template plasmid DNA and 20 μmol (20 μCi) of labeled ^35S-methionine. The POTH1:GAD/BEL complex was immunoprecipitated with anti-GAD antibodies (Santa Cruz Biotechnology, Calif.). The proteins from the pellet (one-half the fraction) and for the prey (one-fourth of the reaction volume) were resolved on a 10% SDS-PAGE gel and visualized by autoradiography.
# POTH1, sequence (as listed by the source): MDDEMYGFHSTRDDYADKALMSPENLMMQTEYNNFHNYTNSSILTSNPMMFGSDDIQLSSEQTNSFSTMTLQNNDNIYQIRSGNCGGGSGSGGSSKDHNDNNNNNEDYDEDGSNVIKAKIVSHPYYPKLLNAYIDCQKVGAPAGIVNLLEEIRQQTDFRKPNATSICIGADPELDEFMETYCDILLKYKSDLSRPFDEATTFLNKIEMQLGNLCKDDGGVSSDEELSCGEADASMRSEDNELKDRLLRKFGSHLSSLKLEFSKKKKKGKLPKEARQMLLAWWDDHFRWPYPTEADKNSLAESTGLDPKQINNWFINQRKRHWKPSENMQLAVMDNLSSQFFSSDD
molecule,measurement,setting,value
B1,effect on the activity of the CaMV 35S promoter,[1],Neither StBEL-05 nor POTH1 showed any effect
same,interaction with POTH1,[2],showed selective interaction
same,binding result,[3],no binding
